In patent US20250206841A1 (ADEPT THERAPEUTICS, published 2025):
Substitutions are numbered along the chain they refer to.

B1: 10A9 (antibody, V domains shown)
VH: QSLEESGGDLVQPGASLTLTCKASGFDLNNYAMLWVRQAPGKGLEWIGCIYISGGTTYFASWATGRFAISKTSSTTVTLQMTSLTAADTATYFCARDDGTTSYYLNLWGPGTLVTVSS
VL: YDMTQTPASVSAAVGGTVTIKCQASEDIYSLLAWYQQKPGQPPKLLIYGASNLESGVPSRFKGSGSGTEYTLTISDLECDDAATYYCQQAYTIGNIDNAFGGGTEVVVK
notes: Rabbit-derived clone; LEM construct: VH + rabbit IgG CH1 + human IgG1 CH2-CH3
B2: 10A9-2 (antibody, V domains shown)
VH: B1 VH with C49S
VL: B1 VL with C79A
B3: 5D4 (antibody, V domains shown)
VH: QQLEESGGGLVKPEGSLTLTCKGSGFDFSGTYWMWWVRQAPGKGLEWIACIYVGSGSSTYYASWAKGRFTISSTSSTAVTLQATSLTAADTATYFCARGATNNVFMNYFNLWGPGTLVTVSS
VL: FEMTQTPSSVSEPVGGTVTIKCQASEDISSNLGWYQQKPGQPPKLLIYGASTLASGVPSRFKGSGSGTEFTLTISDLECADAATYYCQTSYYIDDGVNGFGGGTEVVVK
notes: as for B1
B4: 5D4-1 (antibody, V domains shown)
VH: B3 VH with C50P
VL: B3 VL with C79P
B5: 5D4-2 (antibody, V domains shown)
VH: B3 VH with C50S
VL: B3 VL with C79A
B6: 63H3 (antibody, V domains shown)
VH: QEQLKESGGGLVQPGGSLKLSCKASGFDFNSYGVSWVRQAPGKGLEWIAYIYPAFHNAYYANWVNGRFTISSDNAQNTVDLQLNSLTAADTATYFCARDAGGTDYNYNLWGPGTLVTVSS
VL: DVVMTQTPASVEVAVGGTVTLKCQASEDIESYSAWYQQKPGQPPNLLIYEASKLASGVSSRFSGSGYGTEFTLTISGVECADAATYYCQQALTIGNVDNPFGGGSEVVVR
notes: as for B1
B7: 65D5 (antibody, V domains shown)
VH: B6 VH with S31A, A58T, N62T, D73H, V79L, D80Y, S85T, G102T, Y107F
VL: DIVMTQTPASVSEPVGGTVTIKCQASQSISSYLAWYQQKPGQPPKLLIYEATKLTSGVSSRFSGSGYGTEFTLTISGVECADAATYYCQQALTVGDVDNPFGGGSEVVVK
notes: as for B1

biological target: T1, human Trop-2 expressed on cell surface (human, UniProt P09758 27-323); assay: cell-based or functional assay
T1 sequence (looked up): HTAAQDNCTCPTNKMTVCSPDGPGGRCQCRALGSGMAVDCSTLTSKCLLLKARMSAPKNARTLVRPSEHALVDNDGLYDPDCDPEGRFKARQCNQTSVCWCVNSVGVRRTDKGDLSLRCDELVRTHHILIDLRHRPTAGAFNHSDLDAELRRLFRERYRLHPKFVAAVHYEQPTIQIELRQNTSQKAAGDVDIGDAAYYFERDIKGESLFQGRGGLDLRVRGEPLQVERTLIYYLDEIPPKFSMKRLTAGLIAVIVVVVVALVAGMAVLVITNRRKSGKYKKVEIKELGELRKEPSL

Row | Binder | EC50 of ADCC (NFAT-CD16 reporter), MCF-7 | EC50 of ADCC (NFAT-CD16 reporter), MDA-MB-231
1 | B1 | 0.32 nM | 0.06 nM
2 | B2 | 0.28 nM | 0.07 nM
3 | B3 | 0.57 nM | 0.07 nM
4 | B4 | 0.61 nM | 0.11 nM
5 | B5 | 0.52 nM | 0.08 nM
6 | B6 | 0.17 nM | 0.03 nM
7 | B7 | 0.32 nM | 0.05 nM

biological target: T2, human Trop-2-His protein (human, UniProt P09758 27-274); assay: ELISA, coated Trop-2 protein
T2 construct: extracellular domain; Assay paragraphs say only 'Trop-2-His'; also called hTrop-2; Kactus Cat #TRP-HM121; not shown: His tag
T2 sequence (looked up): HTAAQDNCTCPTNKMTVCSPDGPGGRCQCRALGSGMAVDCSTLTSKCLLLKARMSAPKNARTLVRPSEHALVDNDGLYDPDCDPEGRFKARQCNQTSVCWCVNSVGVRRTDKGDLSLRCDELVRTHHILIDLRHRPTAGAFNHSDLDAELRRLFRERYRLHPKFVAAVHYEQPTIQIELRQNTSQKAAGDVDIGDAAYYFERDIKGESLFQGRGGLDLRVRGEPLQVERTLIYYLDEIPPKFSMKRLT
Procedure: (§1) Purified antibodies were tested by ELISA to confirm their binding and affinity against human and cynomolgus Trop-2-His protein. Briefly, 96-well Maxisorp plates (Nunc) were coated with 100 μl/well of 0.5 μg/ml human (Kactus Cat #TRP-HM121, or Sino Biological, Cat #10428-HO8H) or cynomolgus Trop-2 protein (Kactus Cat #TRP-CM121, or Sino Biological, Cat #90893-CO8H) diluted in 1×PBS (GIBCO) overnight at 4° C. Plates were washed four times with 300 μl/well washing buffer (1×PBST, diluted from 20×PBST (Thermo Scientific) with distilled water)) and then blocked with 300 μl/well of blocking buffer (1×PBST/3% BSA (BSA, Sigma)) for 2 hours at RT on plate shaker at 100 rpm. Plates were washed and added with 100 μl/well of testing antibodies, which were serial diluted with assay buffer (PBST/1% BSA). The antibodies were incubated at room temperature for 2 hours on plate shaker at 100 rpm. Plates were washed. One hundred microliters (100 μl) of 1:10,000 diluted horseradish peroxidase (HRP) conjugated anti-hIgG antibody (Jackson Immuno Research) was added into each well and incubated at room temperature for 1 hour on plate shaker at 100 rpm. Plates were washed and added with 100 μl/well TMB substrate for color development in dark at room temperature for up to 10 minutes. After addition of 50 μl/well of stop solution (1N H₂SO₄), plates were read at 450 nm on a plate reader (SpectraMax M5). EC₅₀ values were calculated using Graphpad Prism. Sacituzumab govitecan, was used as positive control. Anti-HEL.hIgG1 was used as isotype control.

Row | Binder | EC50
8 | B1 | 0.017 nM
9 | B2 | 0.014 nM
10 | B3 | 0.016 nM
11 | B4 | 0.018 nM
12 | B5 | 0.015 nM
13 | B6 | 0.029 nM
14 | B7 | 0.019 nM

Biological target: T3, cynomolgus Trop-2-His protein (cynomolgus, UniProt P09758 27-274 (human entry))
T3 construct: also called cynmolgus Trop-His; Kactus Cat #TRP-CM121; not shown: His tag
T3 chain: T2 sequence (looked up) with M36V, S67N, G139S, I204V
Assay: ELISA, coated Trop-2 protein
Procedure: as §1

Row | Binder | EC50
15 | B1 | 0.015 nM
16 | B2 | 0.016 nM
17 | B3 | 0.014 nM
18 | B4 | 0.023 nM
19 | B5 | 0.018 nM
20 | B6 | 0.033 nM
21 | B7 | 0.015 nM

biological target: T4, rat Trop-2 (rat, UniProt Q6P9Z6 25-270, limits assumed); assay: ELISA, similar to Table 24
T4 sequence (looked up): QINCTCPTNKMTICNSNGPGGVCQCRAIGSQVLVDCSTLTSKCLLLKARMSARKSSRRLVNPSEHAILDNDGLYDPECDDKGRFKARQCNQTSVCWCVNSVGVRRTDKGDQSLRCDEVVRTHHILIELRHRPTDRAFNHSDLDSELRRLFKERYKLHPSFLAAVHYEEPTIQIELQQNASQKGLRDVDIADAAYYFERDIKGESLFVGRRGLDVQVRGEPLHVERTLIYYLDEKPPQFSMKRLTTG
Procedure: as §1
Similar assays were performed to test whether the exemplary antibodies of the present disclosure bind to human Trop-1 (EpCAM) or mouse Trop-2 (Kactus, Cat #TRP-MM121) or rat Trop-2 (kactus, Cat #TRP_RM121). No binding of the exemplary antibodies of the present disclosure to human Trop-1 (EpCAM) or mouse or rat Trop-2 has been detected.

Row | Binder | binding result
22 | B1 | no binding
23 | B2 | no binding
24 | B3 | no binding
25 | B4 | no binding
26 | B5 | no binding
27 | B6 | no binding
28 | B7 | no binding

biological target: T1, human Trop-2 expressed on cell surface; assay: flow cytometry, MDA-MB-231-GFP cells
Procedure: Cells were then resuspended in FACS buffer (1×DPBS/1% FBS) at 10⁶/ml concentration. One hundred microliter (100 μl) of cells were aliquoted into a single well in 96 well plates. The antibodies to be tested were serially diluted at 1:3 fold starting at 15 μg/mL and were then added into each well. The antibodies were mixed with cells and the mixtures were incubated on ice for 1 hour. After washing with FACS buffer, one hundred microliter (100 μl) of 1:400 diluted PE-conjugated anti-human Fc secondary antibody (Jackson Immuno Research) was added into each well and incubated for 30 minutes on ice. After washing with FACS buffer, stained cells were resuspended at diluted 7-ADD (Biolegend, used at 1:100 dilution) and analyzed on Guava 11HT or 5HT (Luminex). Data was analyzed using Flowjo software. EC₅₀ values were calculated using GraphPad Prism. Sacitnzurnab govitecan was used as positive control. Anti-HEL.hIgG1 was used as isotype negative control. Similar assay was performed using MCF-7 cells (known to express human Trop-2).

Row | Binder | EC50
29 | B1 | 0.04 nM
30 | B2 | 0.04 nM
31 | B3 | 0.01 nM
32 | B4 | 0.01 nM
33 | B5 | 0.04 nM
34 | B6 | 0.02 nM
35 | B7 | 0.01 nM

biological target: T1, human Trop-2 expressed on cell surface; assay: cell-based or functional assay; remark: another data set of the same source

Row | Binder | Internalization %, MDA-MB-231, 0.25 µg/ml, 2 h | Internalization %, MDA-MB-231, 0.25 µg/ml, 4 h | Internalization %, MDA-MB-231, 0.5 µg/ml, 2 h | Internalization %, MDA-MB-231, 0.5 µg/ml, 4 h | Internalization %, MDA-MB-231, 1 µg/ml, 2 h | Internalization %, MDA-MB-231, 1 µg/ml, 4 h | Internalization %, MDA-MB-231, 2 µg/ml, 2 h | Internalization %, MDA-MB-231, 2 µg/ml, 4 h
36 | B1 | 54% | 57% | 47% | 53% | 40% | 55% | 38% | 49%
37 | B2 | 46% | 55% | 44% | 55% | 43% | 57% | 45% | 58%
38 | B3 | 56% | 65% | 49% | 66% | 65% | 51% | 60% | 66%
39 | B4 | 58% | 66% | 56% | 61% | 59% | 64% | 57% | 63%
40 | B5 | 55% | 61% | 48% | 57% | 52% | 58% | 57% | 62%
41 | B6 | 40% | 48% | 39% | 45% | 38% | 49% | 37% | 39%
42 | B7 | 34% | 51% | 43% | 51% | 37% | 48% | 31% | 41%
